Assay [1] deals with T1, MSRV ENV surface domain fragment (ENV-SU), recombinant from E. coli (MSRV (Multiple Sclerosis associated …)).
T1 chain: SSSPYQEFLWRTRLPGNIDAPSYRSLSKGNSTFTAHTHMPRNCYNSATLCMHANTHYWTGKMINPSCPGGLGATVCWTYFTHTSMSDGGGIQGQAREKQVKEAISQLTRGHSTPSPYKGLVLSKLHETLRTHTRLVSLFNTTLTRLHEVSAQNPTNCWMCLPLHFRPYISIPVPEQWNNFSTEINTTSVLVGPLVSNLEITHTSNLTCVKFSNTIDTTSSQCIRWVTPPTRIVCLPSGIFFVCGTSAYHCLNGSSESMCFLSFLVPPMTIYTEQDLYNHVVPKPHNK
Kind of assay: cell-based or functional assay.

Assay [2] has as its target T2, MSRV complete ENV protein (ENV-T), recombinant from E. coli (MSRV (Multiple Sclerosis associated …)).
T2 chain: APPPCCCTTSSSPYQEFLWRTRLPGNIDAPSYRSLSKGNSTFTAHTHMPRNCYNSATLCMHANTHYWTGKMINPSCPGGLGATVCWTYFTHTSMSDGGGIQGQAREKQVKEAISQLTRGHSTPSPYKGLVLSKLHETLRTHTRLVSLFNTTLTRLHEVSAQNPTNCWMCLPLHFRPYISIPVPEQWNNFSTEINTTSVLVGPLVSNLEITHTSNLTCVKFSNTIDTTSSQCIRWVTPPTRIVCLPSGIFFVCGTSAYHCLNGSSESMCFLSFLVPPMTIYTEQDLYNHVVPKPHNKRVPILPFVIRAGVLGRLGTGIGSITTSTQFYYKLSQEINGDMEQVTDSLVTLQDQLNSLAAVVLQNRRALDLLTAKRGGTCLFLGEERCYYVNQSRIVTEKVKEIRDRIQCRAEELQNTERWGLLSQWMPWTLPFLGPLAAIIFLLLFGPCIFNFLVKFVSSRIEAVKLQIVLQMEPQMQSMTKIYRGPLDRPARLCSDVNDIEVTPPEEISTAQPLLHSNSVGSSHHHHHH
Kind of assay: cell-based or functional assay.

B1: Humanized GNb AC1 IgG4 antibody (stabilized, H2 S241P heavy chain and VK3 light chain) (antibody, V domains shown)
VH: QVQLVQSGAEVKKPGSSVKVSCKASGYTFTDYEMHWVRQAPGQGLEWIGAVAPETGGTAYNQKFKGRATITADKSTSTAYMELSSLRSEDTAVYYCTSTVVPFAYWGQGTLVTVSS
VL: QIQLTQSPSSLSASVGDRVTITCSASSSVSYMYWYQQKPGKAPKAWIYRTSNLASGVPSRFSGSGSGTDYTLTISSLQPEDFATYYCQQYQSLPLTFGGGTKVEIKR
As for B1, the “IFN-g at 72 h in PBMC culture with ENV-SU 0.5 ug/ml, MAb ratio 10/1 (no antibody: 336)” value in assay [1] was found to be 46. Besides, in assay [2], the “IL-6 at 24 h in PBMC culture with ENV-T 0.1 ug/ml, MAb ratio 10/1 (no antibody: 4363)” value turned out to be 2910.

Values taken from patent publication US20110243962A1 (GENEURO, published 2011).
